Assays:
[1] = system: OVCAR3 human ovarian cancer cells; experiment: OVCAR3 cell line-derived subcutaneous xenograft; assay type: in vivo, Athymic Nude mouse; details: 20 mg/kg intraperitoneally once per week for three weeks
Description: An Athymic Nude mouse subcutaneous xenograft mouse model was generated with OVCAR3 human ovarian cancer cells. Animals were treated with humanized anti-STn ADCs (1 mg/kg, 2.5 mg/kg, 5 mg/kg), an isotype ADC (1 mg/kg, 5 mg/kg), Paclitaxel (20 mg/kg) or vehicle alone. ADCs were administrated intravenously once per week for four weeks. Paclitaxel was administrated intraperitoneally once per week for three weeks. […] At the end of the study, tumor tissues were collected and analyzed using immunohistochemistry for expression of STn.

[2] = system: bovine submaxillary mucin (BSM); experiment: BSM ELISA, periodate-sensitive STn binding
Description: For BSM ELISA analysis, antibodies were screened over a concentration range of 0 to 100 nM on bovine submaxillary mucin (BSM) coated wells. A subset of wells were treated with mild periodate solution before antibody introduction to remove the side chain on terminal sialic acid residues (destroying the STn antigen). Optical densities of periodate and non-periodate-treated wells were determined and log transformed then fit to a nonlinear regression model to obtain a dose response curve. Optical density values obtained from periodate-treated wells were subtracted from non-periodate treated wells to obtain a periodate-sensitive STn binding curve and corresponding EC50 values.

[3] = system: array glycans (AcSTn, GcSTn, Tn and others); experiment: Glycan array analysis; assay type: binding; set-up: key: Group 1: capable of binding AcSTn and GcSTn, if they bind to glycans 5, 6, 23 and 24; Group 2: capable of binding STn as well as some related structures that include an O-linkage to serine or threonine, if they bind to glycans 5, 6, 23, 24, 27 and 31; Group 3: capable of binding STn, but may also bind a broader set of related structures) if they bind glycans 5, 6, 23, 24, 17, 3, 19, 37, 27 and 31; Group 4: capable of binding to both AcSTn and GcSTn as well as the un-sialylated Tn antigen (therefore having broader specificity) if they bind to glycans 5, 6, 23, 24 and 47
Description: Optimized glycan arrays are utilized to test antibody affinity and specificity for multiple glycans in a single experiment. Glycan arrays include 71 chemically synthesized and well-defined glycans, most of which are Neu5Ac and Neu5Gc glycan pairs.
300 ml of epoxy blocking buffer is prepared by combining 15 ml of 2 M Tris buffer (pH 8) with 0.9 ml of 16.6 M ethanolamine and 284.1 ml of distilled water. The solution is brought to a final pH of 9.0 with HCl. The solution is filtered using a […] nitrocellulose membrane. The epoxy buffer solution as well as 1 L of distilled water are pre-warmed to 50° C. Glass slides are arranged in a slide holder and quickly submerged in a staining tub with the warmed epoxy blocking buffer. Slides are incubated in the epoxy blocking buffer for 1 hour at 50° C. with periodic shaking to deactivate epoxy binding sites. Next, slides are rinsed and blocked with PBS with 1% OVA at 25° C. for one hour. Serum samples with polyclonal antibodies (1:1000) or purified monoclonal antibodies (1 ug/mL), are diluted in PBS with 1% OVA and added to the glycan array for one hour at 25° C. After extensive washing, binding of antibodies are detected by incubating glycan microarray slides with Cy3-conjugated anti-mouse IgG (Jackson Immunoresearch, West Grove, Pa.) for one hour. Slides are then washed extensively, dried and scanned with a Genepix 4000B scanner (Laser at 100%; gain at 350; 10 μm pixels). Raw data from scanned images are extracted using the Genepix software and analysis of raw data is carried out.
Based on array analysis, antibodies are classified according to array glycan binding profile. Antibodies are classified as “Group 1” antibodies, capable of binding AcSTn and GcSTn, if they bind to glycans 5, 6, 23 and 24. Such antibodies are referred to as Pan-STn antibodies due to their ability to associate with a wider range of STn structures and the portion of STn indicated by the largest ellipse in FIG. 1A. […]

MDA-MB-231-STn cells = experiment: Flow cytometry-based binding analysis; details: 0 to 300 nM, read-out: MDA-MB-231-STn cell binding [EC50 (nM)]
Description: Humanized IgG1 antibodies, prepared as described above, were subjected to characterization analysis including flow cytometry-based binding analysis with MDA-MB-231-STn cells; binding analysis by BSM ELISA; and glycan array analysis.
In flow cytometry-based binding studies, antibodies were screened over a concentration range of 0 to 300 nM, comparing binding to MDA-MB-231 cells with or without transfection-induced STn expression. Binding was determined using an anti-human APC conjugated secondary antibody and only live cells were considered (based on propidium iodide negative gating). 5,000 events were collected per sample on average. Data were analyzed using FlowJo software (Asland, Oreg.) and resulting APC means and % APC were obtained. […] Human isotype IgG1 antibody was used as an isotype negative control. Epidermal growth factor receptor (LA22, EMD Millipore, Billerica, Mass.) was used as a positive control.

[4] = system: MDA-MB-231 cells transfected for enhanced expression of STn (STn positive cells); experiment: ADC cytotoxicity assay ([…]-GLO); assay type: cell-based; details: MMAE-conjugated ADC versions; 72 hours; kill of STn positive cells
Description: MMAE-conjugated ADC versions of hSIA101, hSIA102, and hSIA103 were assessed in an ADC cytotoxicity assay using MDA-MB-231 cells (parental or transfected for enhanced expression of STn). Parental cells were grown in Eagle's Minimum Essential Medium (EMEM) supplemented with 10% FBS, lx Pen/Strep and 45 μg/mL gentamycin. STn positive cells were grown in the same media except with the addition of 1 mg/mL G418 for antibiotic selection. Cells were seeded separately (4,000 cells/well for parental cells or 2,000/well for STn positive cells) in 96-well plates using proper media described above. Cells were grown overnight. After 16-20 hours, cells were treated with varying concentrations of test antibodies in triplicate (50 nM to 0.012 nM) for 72 hours. Then, cells were analyzed using an ADC […]-GLO® luminescent cell viability assay kit (Promega, Madison, Wis.) to determine the amount of ATP present, an indicator of metabolically active cells. The assay uses a single reagent that is added directly to the cultured cells in serum-supplemented medium. The reagent lyses the cells and generates a luminescent signal proportional to the amount of ATP present. Luminescent signals were analyzed and used to calculate the half-maximal inhibitory concentration (IC50) values for each antibody used based on the concentration required to kill STn positive cells at half-maximal levels (see Table 9).

[5] = system: Primary patient CRC samples; experiment: STn expression in primary patient CRC samples by flow cytometry; assay type: cell-based; details: % of viable CD45−/CD34− population
Text: Primary patient CRC samples were probed by flow cytometry with hSIA101 and two commercial antibodies B72.3 and CC49. All 10 samples tested were STn positive. In the table, % STn is expressed as % of viable CD45−/CD34− population. STn expression was often more robustly identified with hSIA101 than the commercial antibodies.

## CC(=O)O[C@H]1C(=O)[C@@]2(C)[C@H]([C@H](OC(=O)c3ccccc3)[C@]3(O)C[C@H](OC(=O)[C@H](O)[C@@H](NC(=O)c4ccccc4)c4ccccc4)C(C)=C1C3(C)C)[C@]1(OC(C)=O)CO[C@@H]1C[C@@H]2O [Paclitaxel]
[1]; Day 1
  Mean tumor volume: 161.2 mm^3
[1]; Day 4
  Mean tumor volume: 210.0 mm^3
[1]; Day 9
  Mean tumor volume: 370.0 mm^3
[1]; Day 12
  Mean tumor volume: 482.3 mm^3
[1]; Day 15
  Mean tumor volume: 620.4 mm^3
[1]; Day 18
  Mean tumor volume: 767.4 mm^3
[1]; Day 23
  Mean tumor volume: 971.6 mm^3
[1]; Day 26
  Mean tumor volume: 1133.0 mm^3
[1]; Day 30
  Mean tumor volume: 1277.8 mm^3
[1]; Day 31
  Mean tumor volume: 1385.2 mm^3

B1: hSIA102 (antibody, V domains shown)
VH: QVQLVQSGAEVKKPGASVKISCKASGYTFTDHAIHWVRQAPGQGLEWIGYFSPGNDDIKYNEKFKVRATLTADKSSSTAYMELRSLRSDDTAVYFCKRSYYGDWGQGTLVTVSS
VL: DIQMTQSPSSLSASVGDRVTITCRASENIYSHLAWYQQKPGKAPKLLVYGATNLASGVPSRFSGSGSGTQFTLTISSLQPEDFATYYCQHFWGAPFTFGQGTKVEIK
[2]
  periodate sensitivity of binding in ELISA assays: not periodate sensitive
[3]
  Array glycan binding profile: Group 4
MDA-MB-231-STn cells
  EC50: 0.1 nM
[4]
  IC50: 2.6 nM

B2: B72.3: commercial anti-STn antibody (antibody, chains of the INN, looked up, V domains shown)
VH: QVQLQQSDAELVKPGASVKISCKASGYTFTDHAIHWAKQKPEQGLEWIGYISPGNDDIKYNEKFKGKATLTADKSSSTAYMQLNSLTSEDSAVYFCKRSYYGHWGQGTTLTVSS
VL: DIQMTQSPASLSVSVGETVTITCRASENIYSNLAWYQQKQGKSPQLLVYAATNLADGVPSRFSGSGSGTQYSLKINSLQSEDFGSYYCQHFWGTPYTFGGGTRLEIK
[5]; Sample 160093-2, Colon
  % STn+: 18.9%
[5]; Sample 160101-2, Colon
  % STn+: 5.8%
[5]; Sample 160102-2, Colon
  % STn+: 14.7%
[5]; Sample 160104-2, Colon Met to Liver
  % STn+: 46.6%
[5]; Sample 160115-2, Colon
  % STn+: 13%
[5]; Sample 160127-2, Colon
  % STn+: 14.4%
[5]; Sample 160149-1, Colon
  % STn+: 10.5%
[5]; Sample 160151-1, Colon
  % STn+: 6.8%
[5]; Sample 169068-1, Colon
  % STn+: 7.4%
[5]; Sample 1601666, Colon
  % STn+: 17.3%

B3: hSIA103 (antibody, V domains shown)
VH: QVQLVQSGAEVKKPGASVKVSCKASGYTFTDHAIHWVRQAPGQGLEWMGYISPGNGDIKYNEKFKDRVTMTADKSSSTAYMQLRSLRSDDTAVYFCKRSLLALDYWGQGTLVTVSS
VL: DIQMTQSPSSLSASVGDRVTITCKASQDVGTNIAWYQQKPGKAPKVLIYSASTRHTGVPSRFSGSGSGTDFTLTISSLQPEDFATYFCQQYSSFPLTFGQGTKVEIK
[2]; periodate-sensitive STn binding curve, 0 to 100 nM
  EC50: 1.8 nM
[3]
  Array glycan binding profile: Group 1
MDA-MB-231-STn cells
  EC50: 0.3 nM
[4]
  IC50: 1.3 nM
